Earlier results on 19 substances are cited in paper PMC4696766.

Read-outs that look alike come from different tables or passages of the source.

By Kd is commonly meant a measure of binding affinity in units of concentration.

Some targets named below: PIWI (Homo sapiens) (UniProt Q96J94); γH2A.X (Homo sapiens) (UniProt P16104); di-γH2A.X (Homo sapiens) (UniProt P16104); histone H3 1-10 (UniProt P61830).
Data set [1] deals with histone H3 H3K4me3 peptide (UniProt P61830).
Data set [2] addresses histone H3 H3K4me2 peptide (UniProt P61830).
Data set [3] concerns the target Histone H3 (Homo sapiens) (UniProt P68431).
For data set [4] the target is unchanged. The source holds these as a separate data set.
For data set [5] the target is unchanged. This is another data set of the same source.
Data set [6] has as its target Histone H4 (Homo sapiens) (UniProt P62805).
Data set [7] concerns the target Histone H3 (Homo sapiens) (UniProt P68431). This is another data set of the same source.
The target of data set [8] is histone H3 H3K4me3 peptide (UniProt P61830). The source holds these as a separate data set.
Data set [9] concerns the target Histone H3 (Homo sapiens) (UniProt P68431). This is another data set of the same source.
The target of data set [10] is Histone H3 (Arabidopsis thaliana) (UniProt P59226).
Data set [11] deals with histone H3 H3K4me3 peptide (UniProt P61830). The source holds these as a separate data set.
In data set [12] the target is histone H4 H4K20me3 peptide (UniProt P62805).
The target of data set [13] is Histone H3 (Homo sapiens) (UniProt P68431). This is another data set of the same source.
Data set [14] deals with Histone H4 (Homo sapiens) (UniProt P62805). Put plainly: NMR.
The target of data set [15] is Histone H3 (Drosophila melanogaster) (UniProt P02299).
The target of data set [16] is histone H3 H3K9me3 peptide (UniProt P61830).
Data set [17] concerns the target Histone H3 (Arabidopsis thaliana) (UniProt P59226). This is another data set of the same source.
For data set [18], the target named is histone H3 H3K9me2 peptide (UniProt P61830).
For data set [19] the target is unchanged. The source holds these as a separate data set.
Data set [20] has as its target Histone H3 (Homo sapiens) (UniProt P68431). The source holds these as a separate data set.
The target is the same in data set [21]. This is another data set of the same source.
Data set [22] shares this target. The source holds these as a separate data set.
Data set [23] addresses histone H3 H3K9me3 peptide (UniProt P61830). The source holds these as a separate data set.
In data set [24] the target is histone H4 H4K20me2 peptide (UniProt P62805).

MCPH1 tandem BRCT domains, sequence (Q8NEM0 640-833): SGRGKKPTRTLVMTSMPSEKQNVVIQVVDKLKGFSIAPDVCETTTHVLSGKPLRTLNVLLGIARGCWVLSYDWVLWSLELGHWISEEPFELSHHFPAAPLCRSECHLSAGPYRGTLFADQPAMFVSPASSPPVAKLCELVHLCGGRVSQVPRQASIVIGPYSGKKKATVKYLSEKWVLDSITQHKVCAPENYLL
UHRF1 PHD finger, sequence (Q96T88 310-366): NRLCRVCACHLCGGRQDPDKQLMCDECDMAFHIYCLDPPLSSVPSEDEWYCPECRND
14-3-3ζ, sequence (P63104 whole entry): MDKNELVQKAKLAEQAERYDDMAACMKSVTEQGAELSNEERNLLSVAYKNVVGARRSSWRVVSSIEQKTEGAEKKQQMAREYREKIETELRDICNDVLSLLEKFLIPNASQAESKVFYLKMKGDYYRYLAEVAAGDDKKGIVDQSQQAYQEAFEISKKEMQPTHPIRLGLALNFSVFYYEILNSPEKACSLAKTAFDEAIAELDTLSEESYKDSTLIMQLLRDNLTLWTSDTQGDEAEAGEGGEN
JMJD2A tandem Tudor, sequence (O75164 897-1011): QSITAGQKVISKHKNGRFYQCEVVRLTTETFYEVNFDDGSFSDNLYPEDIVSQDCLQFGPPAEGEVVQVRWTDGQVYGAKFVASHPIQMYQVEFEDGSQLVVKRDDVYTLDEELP
G9a ankyrin repeats, sequence (Q96KQ7 649-879): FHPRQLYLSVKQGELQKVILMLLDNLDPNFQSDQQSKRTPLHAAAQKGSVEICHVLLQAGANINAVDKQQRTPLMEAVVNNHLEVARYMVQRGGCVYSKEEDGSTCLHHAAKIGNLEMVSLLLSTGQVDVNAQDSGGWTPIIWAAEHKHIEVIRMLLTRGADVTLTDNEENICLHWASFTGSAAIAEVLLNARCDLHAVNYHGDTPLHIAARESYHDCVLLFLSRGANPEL
HP1 chromodomain, sequence (P05205 24-82): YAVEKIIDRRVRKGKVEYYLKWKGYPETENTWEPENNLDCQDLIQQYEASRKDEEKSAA
CHD1 tandem chromodomains, sequence (O14646 272-452): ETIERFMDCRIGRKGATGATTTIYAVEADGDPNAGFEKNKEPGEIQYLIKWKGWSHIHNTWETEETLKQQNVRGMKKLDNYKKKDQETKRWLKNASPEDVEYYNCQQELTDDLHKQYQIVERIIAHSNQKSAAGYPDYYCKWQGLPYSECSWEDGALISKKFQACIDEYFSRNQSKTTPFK
BHC80 PHD finger, sequence (Q96BD5 whole entry): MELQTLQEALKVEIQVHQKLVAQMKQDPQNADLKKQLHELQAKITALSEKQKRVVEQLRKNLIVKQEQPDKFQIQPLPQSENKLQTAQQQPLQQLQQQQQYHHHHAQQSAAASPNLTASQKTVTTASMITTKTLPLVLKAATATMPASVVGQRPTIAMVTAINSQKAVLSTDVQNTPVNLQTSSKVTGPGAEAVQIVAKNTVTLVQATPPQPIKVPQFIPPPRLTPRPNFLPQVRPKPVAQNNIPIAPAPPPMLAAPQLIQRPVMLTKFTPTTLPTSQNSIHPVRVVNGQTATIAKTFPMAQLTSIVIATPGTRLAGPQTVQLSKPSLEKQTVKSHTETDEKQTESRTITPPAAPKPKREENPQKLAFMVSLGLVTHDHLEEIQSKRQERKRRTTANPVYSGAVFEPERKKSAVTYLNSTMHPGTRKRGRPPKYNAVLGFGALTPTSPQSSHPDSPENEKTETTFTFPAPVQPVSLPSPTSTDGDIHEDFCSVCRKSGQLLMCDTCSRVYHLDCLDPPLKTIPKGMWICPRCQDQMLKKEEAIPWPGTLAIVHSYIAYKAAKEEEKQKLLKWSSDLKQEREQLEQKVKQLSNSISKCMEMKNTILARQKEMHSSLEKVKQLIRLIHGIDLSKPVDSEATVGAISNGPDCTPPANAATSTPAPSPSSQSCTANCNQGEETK
SHH1 tandem Tudor domains, sequence (Q9XI47 138-244): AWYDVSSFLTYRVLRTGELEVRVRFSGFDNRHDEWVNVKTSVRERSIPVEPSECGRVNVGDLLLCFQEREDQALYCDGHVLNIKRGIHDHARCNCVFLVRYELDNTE
SHH1 tandem Tudor, sequence (Q9XI47 138-244): as above
P/CAF bromodomain, sequence (Q92831 720-830): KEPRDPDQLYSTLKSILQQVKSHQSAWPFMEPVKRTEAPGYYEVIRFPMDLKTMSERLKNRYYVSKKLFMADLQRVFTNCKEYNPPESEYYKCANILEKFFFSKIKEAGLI
UHRF1 tandem Tudor-PHD cassette, sequence (Q96T88 133-366): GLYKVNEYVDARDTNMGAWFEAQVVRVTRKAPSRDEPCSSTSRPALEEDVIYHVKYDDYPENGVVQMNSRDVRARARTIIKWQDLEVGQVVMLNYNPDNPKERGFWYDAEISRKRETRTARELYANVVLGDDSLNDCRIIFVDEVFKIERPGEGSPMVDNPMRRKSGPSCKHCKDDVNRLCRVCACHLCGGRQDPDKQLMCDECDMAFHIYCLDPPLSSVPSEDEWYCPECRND
UHRF1 tandem Tudor domain, sequence (Q96T88 133-283): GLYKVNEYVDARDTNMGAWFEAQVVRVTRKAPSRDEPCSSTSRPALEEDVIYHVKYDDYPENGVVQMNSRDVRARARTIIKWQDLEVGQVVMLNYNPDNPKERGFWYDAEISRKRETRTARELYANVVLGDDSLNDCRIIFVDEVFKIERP
SND1 extended Tudor domain, sequence (Q7KZF4 650-910): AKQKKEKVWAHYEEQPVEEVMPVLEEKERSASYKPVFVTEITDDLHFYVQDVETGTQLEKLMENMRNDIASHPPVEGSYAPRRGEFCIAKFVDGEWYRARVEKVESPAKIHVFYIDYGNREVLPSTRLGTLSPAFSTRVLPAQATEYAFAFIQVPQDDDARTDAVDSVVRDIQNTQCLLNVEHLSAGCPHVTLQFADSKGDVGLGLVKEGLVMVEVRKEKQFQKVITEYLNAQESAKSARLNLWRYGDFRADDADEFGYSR
DPF3 tandem PHD fingers, sequence (Q92784 259-366): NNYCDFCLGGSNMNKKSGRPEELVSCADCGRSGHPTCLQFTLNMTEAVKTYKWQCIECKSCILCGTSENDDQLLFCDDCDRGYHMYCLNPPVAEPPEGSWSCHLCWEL
53BP1 tandem Tudor, sequence (Q12888 1484-1603): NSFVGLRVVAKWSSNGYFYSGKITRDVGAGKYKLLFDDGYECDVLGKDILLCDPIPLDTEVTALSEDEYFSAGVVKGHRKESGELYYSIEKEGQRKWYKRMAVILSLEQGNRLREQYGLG
53BP1 tandem Tudor domains, sequence (Q12888 1484-1603): as above

For BPTF PHD finger (from UniProt Q12830), the Kd is 2.7 µM in [1] and 5 µM in [2].

On to “UHRF1 tandem Tudor-PHD cassette (from UniProt Q96T88)”, for which, in [3], the equilibrium dissociation constant (Kd) is 0.37 µM. 14-3-3ζ (from UniProt P63104): the Kd in data set [4] is 23 µM; in data set [5] it was 78 µM. In the case of “53BP1 tandem Tudor domains (from UniProt Q12888)”, the Kd in data set [6] is 19.7 µM. For the substance “DPF3 tandem PHD fingers (from UniProt Q92784)”, in data set [7], the Kd was 0.5 µM.

As to “CHD1 tandem chromodomains (from UniProt O14646)”, the Kd in [8] and in data set [9] was 5 µM in each case. On to “SHH1 tandem Tudor domains (from UniProt Q9XI47)”, for which the dissociation constant Kd in data set [10] was 1.9 µM. With “JMJD2A tandem Tudor (from UniProt O75164)”, the dissociation constant Kd is 0.5 µM in [11] and 0.4 µM in [12].

On to “UHRF1 tandem Tudor domain (from UniProt Q96T88)”, for which the dissociation constant (Kd) in [13] is 1.75 µM. As for P/CAF bromodomain (from UniProt Q92831), the Kd in data set [14] is 346 µM. As to HP1 chromodomain (from UniProt P05205), the dissociation constant Kd in data set [15] and in data set [16] was 2.5 µM throughout. As for “G9a ankyrin repeats (from UniProt Q96KQ7)”, the Kd in [17] and in [18] was 6 µM in each case. Consider “SND1 extended Tudor domain (from UniProt Q7KZF4)”, for which the dissociation constant (Kd) with PIWI (Homo sapiens) is 10 µM.

With SHH1 tandem Tudor (from UniProt Q9XI47), in [19], the Kd was 1.9 µM. Consider UHRF1 PHD finger (from UniProt Q96T88), for which the figures for the Kd in data set [20] and in [21] were 2.1 µM and 1.47 µM, respectively. As to “MCPH1 tandem BRCT domains (from UniProt Q8NEM0)”, the equilibrium dissociation constant (Kd) with γH2A.X (Homo sapiens) was 0.7 µM; in the data set with di-γH2A.X (Homo sapiens) it was 4.4 µM.

In the case of BHC80 PHD finger (from UniProt Q96BD5), the dissociation constant Kd (in data set [22]; in the data set with histone H3 1-10) was 30 µM in each case. Consider ATRX ADD (from UniProt P46100), for which, in data set [23], the equilibrium dissociation constant (Kd) was 0.5 µM. “53BP1 tandem Tudor (from UniProt Q12888)”: the Kd in data set [24] is 19.7 µM.
